Laboratory results from publication PMC5591402, “Facile Affinity Maturation of Antibody Variable Domains Using Natural Diversity Mutagenesis” (Frontiers in Immunology, 2017).
Residue numbers refer to the chain shown, from its start. Where no end group is shown, it is not given here.

B1: N2 VHH alanine mutant G100b (VHH)
VHH: QGQLVESGGGSVQAGGSLRLSCAASGIDSSSYCMGWFRQRPGKEREGVARINGLGGVKTAYADSVKDRFTISRDNAENTVYLQMNSLKPEDTAIYYCAAKFSPGYCAGSWSNFGYWGQGTQVTVSS
notes: PDB 2X6M) with the stated change; Kabat numbering
B2: N2 VHH alanine mutant S100f (VHH)
VHH: B1 VHH with A107G, S111A
notes: as for B1
B3: N2 VHH alanine mutant G100c (VHH)
VHH: B1 VHH with A107G, G108A
notes: as for B1
B4: N2 VHH alanine mutant G99 (VHH)
VHH: B1 VHH with G104A, A107G
notes: as for B1
B5: N2 VHH alanine mutant L52b (VHH)
VHH: B1 VHH with L54A, A107G
notes: as for B1
B6: N2 VHH alanine mutant G53 (VHH)
VHH: B1 VHH with G55A, A107G
notes: as for B1
B7: N2 VHH alanine mutant N100g (VHH)
VHH: B1 VHH with A107G, N112A
notes: as for B1
B8: N2 VHH alanine mutant S97 (VHH)
VHH: B1 VHH with S102A, A107G
notes: as for B1
B9: N2 VHH alanine mutant F96 (VHH)
VHH: B1 VHH with F101A, A107G
notes: as for B1
B10: N2 VHH alanine mutant S100d (VHH)
VHH: B1 VHH with A107G, S109A
notes: as for B1
B11: N2 VHH alanine mutant V55 (VHH)
VHH: B1 VHH with V57A, A107G
notes: as for B1
B12: wild-type N2 VHH antibody (VHH)
VHH: B1 VHH with A107G
notes: also called NbSyn2; wild-type N2 variable domain; not shown: His6, C-terminal, kept
B13: N2.12 VHH (VHH)
VHH: B1 VHH with A49G, L54W, G55R, V57I, F101S, A107G, S109T
notes: PDB 2X6M) with six CDR mutations; Kabat numbering; Selected from the natural diversity library by yeast display; also called N2.12 variant; not shown: His6, C-terminal, kept
B14: N2.17 reversion mutant L52b (VHH)
VHH: B1 VHH with F101S, A107G, S109T, S111F
notes: as the VHH chain of m4 (N2.17) with W52b reverted to the wild-type L52b; PDB 2X6M); Kabat numbering
B15: N2.17 reversion mutant S100f (VHH)
VHH: B1 VHH with L54W, F101S, A107G, S109T
notes: as the VHH chain of m4 (N2.17) with F100f reverted to the wild-type S100f; PDB 2X6M); Kabat numbering; also called reversion mutation S100f
B16: N2.5 VHH (VHH)
VHH: B1 VHH with G55S, F101S, A107G, S109T, S111F, N112S
notes: PDB 2X6M) with mutations in CDR2 and CDR3; One of the 17 unique variants of the enriched library (1-6 mutations in CDR2 and CDR3)
B17: N2.12 reversion mutant G53 (VHH)
VHH: B1 VHH with A49G, L54W, V57I, F101S, A107G, S109T
notes: as the VHH chain of m3 (N2.12) with R53 reverted to the wild-type G53; PDB 2X6M); Kabat numbering
B18: N2.12 reversion mutant S100d (VHH)
VHH: B1 VHH with A49G, L54W, G55R, V57I, F101S, A107G
notes: as the VHH chain of m3 (N2.12) with T100d reverted to the wild-type S100d; PDB 2X6M); Kabat numbering
B19: N2.17 reversion mutant S100d (VHH)
VHH: B1 VHH with L54W, F101S, A107G, S111F
notes: as the VHH chain of m4 (N2.17) with T100d reverted to the wild-type S100d; PDB 2X6M); Kabat numbering
B20: N2.17 reversion mutant F96 (VHH)
VHH: B1 VHH with L54W, A107G, S109T, S111F
notes: as the VHH chain of m4 (N2.17) with S96 reverted to the wild-type F96; PDB 2X6M); Kabat numbering
B21: N2.16 VHH (VHH)
VHH: B1 VHH with A49G, L54W, G55S, F101S, A107G, S109T, S111Y
notes: PDB 2X6M) with mutations in CDR2 and CDR3; One of the 17 unique variants of the enriched library
B22: N2.17 VHH (VHH)
VHH: B1 VHH with L54W, F101S, A107G, S109T, S111F
notes: PDB 2X6M) with four CDR mutations; Kabat numbering; Selected from the natural diversity library by yeast display; also called N2.17 variant; not shown: His6, C-terminal, kept
B23: N2.12 reversion mutant F96 (VHH)
VHH: B1 VHH with A49G, L54W, G55R, V57I, A107G, S109T
notes: as the VHH chain of m3 (N2.12) with S96 reverted to the wild-type F96; PDB 2X6M); Kabat numbering; also called reversion mutation (F96)
B24: N2.12 reversion mutant L52b (VHH)
VHH: B1 VHH with A49G, G55R, V57I, F101S, A107G, S109T
notes: as the VHH chain of m3 (N2.12) with W52b reverted to the wild-type L52b; PDB 2X6M); Kabat numbering
B25: N2.12 reversion mutant A49 (VHH)
VHH: B1 VHH with L54W, G55R, V57I, F101S, A107G, S109T
notes: as the VHH chain of m3 (N2.12) with G49 reverted to the wild-type A49; PDB 2X6M); Kabat numbering; also called N2.12 with A49

Molecular target: T1, TAMRA-labeled α-synuclein peptide (Homo sapiens, also: TAMRA fluorophore, position not given here)
T1 construct: the TAMRA peptide is called the α-synuclein peptide; also called C-terminal α-synuclein peptide; antigen; source: synthetic peptide, bought: Genemed Synthesis Inc
T1 chain: GYQDYEPEA
Assay: fluorescence polarisation; alanine scan: single VHH concentrations (44, 133 and 400 nM) with 2 nM TAMRA-labeled α-synuclein peptide; background-subtracted signal of the mutant divided by that of wild type
Details: both partners purified
In the case of B1, the “binding relative to wild type (normalised polarisation signal)” value is reported as > 50%. With B2 the “binding relative to wild type (normalised polarisation signal)” value was > 50%. In the case of B3, the “binding relative to wild type (normalised polarisation signal)” value is reported as > 50%. For B4, the “binding relative to wild type (normalised polarisation signal)” value was > 50%. B5 was tested, and the “binding relative to wild type (normalised polarisation signal)” value was > 50%. For B6, the “binding relative to wild type (normalised polarisation signal)” value was > 50%. For B7, the “binding relative to wild type (normalised polarisation signal)” value was > 50%. For B8, the “binding relative to wild type (normalised polarisation signal)” value was > 50%. For B9, the “binding relative to wild type (normalised polarisation signal)” value was > 50%. For B10, the “binding relative to wild type (normalised polarisation signal)” value was > 50%. B11 was tested, and the “binding relative to wild type (normalised polarisation signal)” value was > 50%.

Molecular target: T1, TAMRA-labeled α-synuclein peptide
Assay: fluorescence polarisation; VHH titrated (0.8 nM-1.6 µM) against 2 nM TAMRA-labeled α-synuclein peptide; PBS with 0.001% BSA and 0.001% Tween 20; room temperature, 3 h; fit that accounts for antibody not in excess of antigen
Details: both partners purified
B12 was tested, and the Kd was 57.6 nM. With B13 the Kd was 7.6 nM. B14: binds. B15: binds. B16: binds. B17: binds. B18: binds. B19: binds. B20: binds. B21: binds. For B22, the Kd was 13.2 nM. B23: binds. B24: binds. B25 was tested, and the “fold affinity enhancement relative to wild type” value was > 7 fold.
